The values below are quoted from earlier work in PMC8297464.

Series [1] addresses ACE2 (Homo sapiens) (UniProt Q9BYF1).
Series [2] has as its target Spike RBD RBD (SARS-CoV-2) (UniProt P0DTC2).

Chain of Human defensin 5 (Q01523 63-94): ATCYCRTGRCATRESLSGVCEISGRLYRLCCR

Regarding Human defensin 5 (from UniProt Q01523), the Kd in series [1] is 39.3 nM.

For “SBP1 α1 helix 23-mer (from UniProt Q9BYF1)”, the Kd in series [2] is 47 nM.
